Measured values from patent EP1758924B1 (Council of Scientific and Industrial Research, dated 2005).

B1: phage clone displaying peptide sequence Seq ID 9 (Lys-Met-His-Ala-Thr-Asn-His), from the Ph.D.-7 library on bacteriophage M13 (peptide)
peptide: KMHATNH
notes: Tested as whole phage in the reverse phage ELISA; not shown: fused to an M13 coat protein (spacer Gly-Gly-Gly-Ser is named)
B2: phage clone displaying peptide sequence Seq ID 21 (Tyr-Pro-His-His-Phe-Lys-His-Arg-His-Ile-Pro-Ile), from the Ph.D.-12 library on bacteriophage M13 (peptide)
peptide: YPHHFKHRHIPI
notes: as for B1

Legend:
[1] = target: T1, bovine serum albumin (BSA) (bovine, UniProt P02769 25-607); test: reverse phage ELISA, A405
T1 construct: Negative control target in the reverse phage ELISA

[2] = target: T2, Hsp16.3 (16 kDa alpha-crystallin like heat-shock protein of Mycobacterium tuberculosis), recombinant, 6 X His … (Mycobacterium tuberculosis); test: reverse phage ELISA on coated Hsp16.3, anti-M13-HRP, A405
T2 construct: also called M. tuberculosis Acr (Hsp16.3) protein

T1 sequence (P02769 25-607 limits assumed): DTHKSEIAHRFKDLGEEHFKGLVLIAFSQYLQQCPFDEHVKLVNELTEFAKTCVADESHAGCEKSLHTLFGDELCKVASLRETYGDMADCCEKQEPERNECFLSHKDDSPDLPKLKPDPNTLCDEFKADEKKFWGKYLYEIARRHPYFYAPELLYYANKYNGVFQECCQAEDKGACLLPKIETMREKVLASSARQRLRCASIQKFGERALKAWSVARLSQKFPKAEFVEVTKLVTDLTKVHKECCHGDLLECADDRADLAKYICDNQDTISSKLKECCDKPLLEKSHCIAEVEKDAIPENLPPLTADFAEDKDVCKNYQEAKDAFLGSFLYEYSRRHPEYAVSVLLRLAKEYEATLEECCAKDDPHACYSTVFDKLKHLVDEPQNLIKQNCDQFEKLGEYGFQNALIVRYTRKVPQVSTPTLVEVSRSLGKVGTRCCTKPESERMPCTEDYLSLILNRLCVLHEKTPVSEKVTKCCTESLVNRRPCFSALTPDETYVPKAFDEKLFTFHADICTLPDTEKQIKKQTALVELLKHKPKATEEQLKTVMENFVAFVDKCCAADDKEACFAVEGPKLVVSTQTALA

Binder	binding result [1]	fold binding over BSA background [2]
B1	no binding	~3 fold
B2	no binding	–
